Results on one variant are retold here after IntAct's records for PubMed 22184064.

B1: Cyclin-Y (Homo sapiens), Q8ND76-1 (parent)
chain: MGNTTSCCVSSSPKLRRNAHSRLESYRPDTDLSREDTGCNLQHISDRENIDDLNMEFNPSDHPRASTIFLSKSQTDVREKRKSLFINHHPPGQIARKYSSCSTIFLDDSTVSQPNLKYTIKCVALAIYYHIKNRDPDGRMLLDIFDENLHPLSKSEVPPDYDKHNPEQKQIYRFVRTLFSAAQLTAECAIVTLVYLERLLTYAEIDICPANWKRIVLGAILLASKVWDDQAVWNVDYCQILKDITVEDMNELERQFLELLQFNINVPSSVYAKYYFDLRSLAEANNLSFPLEPLSRERAHKLEAISRLCEDKYKDLRRSARKRSASADNLTLPRWSPAIIS

In the first test the parent is B1. To be noted: with cdk16_human CDK16, Q00536.
Chain of cdk16_human CDK16, Q00536 (Q00536 whole entry): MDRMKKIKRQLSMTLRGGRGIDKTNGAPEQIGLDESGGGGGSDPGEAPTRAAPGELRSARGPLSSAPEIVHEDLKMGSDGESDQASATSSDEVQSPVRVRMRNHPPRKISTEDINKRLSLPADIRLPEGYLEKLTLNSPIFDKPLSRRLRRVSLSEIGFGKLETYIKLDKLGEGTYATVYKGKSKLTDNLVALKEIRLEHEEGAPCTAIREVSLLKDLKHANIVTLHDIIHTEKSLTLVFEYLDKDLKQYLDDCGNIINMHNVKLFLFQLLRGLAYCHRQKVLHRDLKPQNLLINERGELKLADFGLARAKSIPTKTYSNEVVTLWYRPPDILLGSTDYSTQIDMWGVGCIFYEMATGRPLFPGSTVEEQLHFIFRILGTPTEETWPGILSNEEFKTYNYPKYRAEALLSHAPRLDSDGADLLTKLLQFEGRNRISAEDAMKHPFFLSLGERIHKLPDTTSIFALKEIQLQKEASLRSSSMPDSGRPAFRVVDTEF
On to MGNTTSCCVSSSPKLRRNAHSRLESYRPDTDLSREDTGCNLQHISDRENIDDLNMEFNPSDHPRASTIFLSKSQTDVREKRKSLFINHHPPGQIARKYSSCSTIFLDDSTVSQPNLKYTIKCVALAIYYHIKNRDPDGRMLLDIFDENLHPLSKSEVPPDYDKHNPEQKQIYRFVRTLFSAAQLTAECAIVTLVYLERLLTYAEIDICPANWKRIVLGAILAAAKVWDDQAVWNVDYCQILKDITVEDMNELERQFLELLQFNINVPSSVYAKYYFDLRSLAEANNLSFPLEPLSRERAHKLEAISRLCEDKYKDLRRSARKRSASADNLTLPRWSPAIIS [L222A;S224A], for which the “effect of a mutation on the interaction” value was “decreasing interaction strength”.

Variants of B1 are the subject of another test. The note with it: with cdk16_human CDK16, Q00536. The source holds these as a separate data set.
Regarding MGNTTSCCVSSSPKLRRNAHSRLESYRPDTDLSREDTGCNLQHISDRENIDDLNMEFNPSDHPRASTIFLSKSQTDVREKRKSLFINHHPPGQIARKYSSCSTIFLDDSTVSQPNLKYTIKCVALAIYYHIKNRDPDGRMLLDIFDENLHPLSKSEVPPDYDKHNPEQKQIYRFVRTLFSAAQLTAECAIVTLVYLERLLTYAEIDICPANWKRIVLGAILAAAKVWDDQAVWNVDYCQILKDITVEDMNELERQFLELLQFNINVPSSVYAKYYFDLRSLAEANNLSFPLEPLSRERAHKLEAISRLCEDKYKDLRRSARKRSASADNLTLPRWSPAIIS [L222A;S224A], the “effect of a mutation on the interaction” value is recorded as “disrupting interaction strength”.
